Reference: patent publication US20210284724A1 (I MAB BIOPHARMA US, published 2021)
Numbering of substitutions follows the chain as printed. Blank lines part the entries; values can stand above or below the binder they belong to.

How the values were obtained:
[1] = biological target: T1, human CXCL13 (human, UniProt O43927 23-109); test: SPR Biacore T200
T1 construct: also called huCXCL13; rhCXCL13
T1 sequence (looked up): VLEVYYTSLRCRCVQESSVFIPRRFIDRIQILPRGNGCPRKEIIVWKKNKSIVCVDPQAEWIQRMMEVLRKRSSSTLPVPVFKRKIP

[2] = biological target: T1, human CXCL13; test: SPR Biacore T200; remark: listed apart in the source
Experimental: To further optimization of 71F4-B, each Mutations in 71F4A3 useful for improving binding (Kon) were added into 71F4-B, the sequences were listed in Table 28. Antibodies according to these sequences were generated and affinity testing was performed by Biacore T200.

[3] = biological target: T1, human CXCL13; test: SPR Biacore T200; remark: listed apart in the source
Experimental: In the second approach, mutations were carried out by multiple libraries including 4 different sub libraries, such as saturated mutation libraries by CDR walking for CDR L1, CDR L3, CDR H3 or CDR L2, CDR H1, CDR H2 and saturated mutation libraries by three aa mutated continuously for CDR H3 or CDR L3. After finishing construction of phage sub libraries, antigen CXCL13 screening followed. Antibodies of these sequences were generated, and affinity testing was performed by Biacore T200. To further optimize the antibodies, the lead clones were then back mutated to its humanized counterpart one aa by one aa. Sequences were generated and synthesized for antibodies. Affinity was tested by Biacore T200.

[4] = biological target: T2, human CXCL13 F20A (human, UniProt O43927 23-109); test: alanine scan, flow cytometry on transfected cells
T2 construct: mature; 87 residues fits the mature chain
T2 sequence (looked up): T1 sequence (looked up) with F20A
Experimental: (§1) Cells were transfected with different WT construct or […] mutant construct which each amino acid was mutant to alanine, totally 87 amino acids. Then, binding of the test Fab to each mutant clone in the alanine scanning library was determined, in duplicate, by high-throughput flow cytometry. For each point, background fluorescence was subtracted from the raw data, which were then normalized to Fab reactivity with WT target protein. For each mutant clone, the mean binding value was plotted as a function of expression (represented by control reactivity). To identify preliminary primary critical clones (red circles), a threshold (dashed lines) of >70% WT binding to control Ab and <20% WT binding to test Fab was applied.
(§2) We draw the crystal structure diagram in the FIG. 8B, and the critical residues for 64C10G1 Fab binding were visualized and shown on this crystal structure.

[5] = biological target: T3, human CXCL13 R24A (human, UniProt O43927 23-109); test: alanine scan, flow cytometry on transfected cells
T3 construct: mature; 87 residues fits the mature chain
T3 sequence (looked up): T1 sequence (looked up) with R24A
Experimental: as §1, §2

[6] = biological target: T4, human CXCL13 P22A (human, UniProt O43927 23-109); test: alanine scan, flow cytometry on transfected cells
T4 construct: mature; 87 residues fits the mature chain
T4 sequence (looked up): T1 sequence (looked up) with P22A
Experimental: as §1, §2

[7] = biological target: T5, human CXCL13 F25A (human, UniProt O43927 23-109); test: alanine scan, flow cytometry on transfected cells
T5 construct: mature; 87 residues fits the mature chain
T5 sequence (looked up): T1 sequence (looked up) with F25A
Experimental: as §1, §2

[8] = biological target: T1, human CXCL13; test: SPR Biacore 8K, Fab over immobilised CXCL13
Summary of the method: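 Surface plasmon resonance: CXCL13 amine-coupled to CM5 chip at ~250 RU, humanized Fabs injected at 0–20 nM, 30 μl/min, in HEPES-buffered saline with EDTA and Tween-20, pH 7.4. Dissociation 600 s; regeneration with glycine-HCl pH 2.0.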

[9] = biological target: T1, human CXCL13; test: SPR Biacore, off-rate ranking of Fabs
[10] = biological target: T1, human CXCL13; test: cell-based blocking assay, CXCL13 to CXCR5 cells
Summary of the method: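 To obtain IC50, a titration of humanized Fabs was tested against human CXCL13 binding to CHO-K1 cells expressing CXCR5. The cells (5×10⁴/well) were plated overnight at 37° C, fixed with 2% PFA and blocked with 1% BSA in PBST, then given 100 μl of Fab mixed with an equal volume of 0.3 μg/ml CXCL13 after a 30 min pre-incubation at room temperature. After 30 min on the cells and three PBST washes, bound CXCL13 was captured with 3 μg/ml human anti-CXCL13 antibody, detected with anti-human Fc-HRP and read at 450 nm.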

[11] = biological target: T1, human CXCL13; test: ELISA binding, Fab
[12] = biological target: T2, human CXCL13 F20A; test: alanine scan, flow cytometry
Experimental: as §1

[13] = biological target: T1, human CXCL13; test: SPR Biacore 8K, Fab over immobilised CXCL13; remark: listed apart in the source
Experimental: HuCXCL13 binding affinity by Surface Plasmon Resonance. 411A11E9, 415A3D1, 64C10G1, 21H12D9, 329F2E1, 71F4A3 were selected to produce Fab and tested binding affinity. The binding of the antibodies to huCXCL13 was examined by Biacore 8K. 10 mM HEPES, 150 mM NaCl, 3 mM EDTA, 0.05% Tween-20, pH 7.4 served as running buffer and 10 mM glycine-HCl, pH2.0 served as regeneration buffer. CXCL13 protein was immobilized on Sensor Chip CM5 using amine coupling method (immobilization level ˜30RU). The serial concentrations of Fab (0-16 nM) were injected over immobilized CXCL13 at the flow rate of 30 μl/min. The dissociation phases were 600s.

Kd [1]: < 1 nM | Kd [2]: 0.36 nM | koff [2]: 6.59e-05 s⁻¹ | kon [2]: 183000 M⁻¹ s⁻¹ | Kd [3]: 0.195 nM | koff [3]: 3.57e-05 s⁻¹ | kon [3]: 183000 M⁻¹ s⁻¹
B1: 71F4-B (antibody, V domains shown)
VH: EVQLVESGGGLVQPGGSLRLSCAASGIDFSRYWMSWVRQAPGKGLEWVAEINPESSTINYAPSLKDRFTISRDNAKNSLYLQMNSLRAEDTAVYYCARQDDYEYYTMDYWGQGTTVTVSS
VL: DIQMTQSPSSLSASVGDRVTITCKVSQDVNTGVAWYQQKPGKAPKLLIYSASYRYTGVPSRFSGSGSGTDFTFTISSLQPEDIATYYCQQYYSTPLTFGGGTKLEIK
notes: also called 71F4A3-B

Binding reactivity (% WT) [4]: 9.4 % WT | Binding reactivity (% WT) [5]: -3.3 % WT | Binding reactivity (% WT) [6]: 14.8 % WT | Binding reactivity (% WT) [7]: -3.2 % WT | Kd [8]: 0.814 nM | koff [8]: 0.00218 s⁻¹ | kon [8]: 2.68e+06 M⁻¹ s⁻¹ | Kd [9]: 0.814 nM | koff [9]: 0.00218 s⁻¹ | kon [9]: 2.68e+06 M⁻¹ s⁻¹ | IC50 [10]: 7.22 nM | EC50 [11]: 1.71 nM | binding result [12]: no binding (tested: <20% WT binding) | Kd [13]: 0.178 nM | koff [13]: 0.0005 s⁻¹ | kon [13]: 2.81e+06 M⁻¹ s⁻¹
B2: 64C10G1 chimeric Fab (Fab, V domains shown)
VH: EVQLVESGGGLVKPGGSLKLSCAASGFTFSSYAMSWVRQTPEKRLEWVATISDGGSDAYYPDNVKGRFTISRDNAKNNLYLQMSHLKSEDTAMYYCARDYYGSGYEDSPMDYWGQGTSVTVSS
VL: DIQMTQSPSSLSASLGGKVTITCKASQDINKYIAWYQHKPGKGPRLLIHYTSTLQPGIPSRFSGSGSGRDYSFSISNLEPEDFATYYCLQYDNLYTFGGGTKLEIK
notes: Fab; also called 64C10G1 Fab
